Series [1] relates to NC(=O)c1ccc[n+]([C@@H]2O[C@H](COP(=O)(O)OP(=O)(O)OC[C@H]3O[C@@H](n4cnc5c(N)ncnc54)[C@H](O)[C@@H]3O)[C@@H](O)[C@H]2O)c1. Nature of the series: purified protein. Particulars: 1 mM PAAld, 100 mM Tris-HCl pH 8.0, 100 mM KCl, 25 °C, varied: cofactor.
Series [2] relates to O=CCc1ccccc1. Nature of the series: purified protein. Particulars: 5 mM NAD+, 100 mM Tris-HCl pH 8.0, 100 mM KCl, 25 °C.

As for “AldA (Pseudomonas syringae pv. tomato str. DC3000)”, in series [1], the Km (usually the substrate concentration at which the rate is half of its maximum) turned out to be 11.2 ± 1.2 µM; the kcat – broadly, the number of substrate molecules converted per active site and unit of time at saturation – is 1.4 ± 0.0183 s⁻¹; the kcat/Km – broadly, the turnover number divided by the Michaelis constant – came to 125000 M⁻¹ s⁻¹. For the same substance, in series [2], the Km came out at 645 ± 113 µM, the kcat was 18.7 ± 1.3 s⁻¹ and the catalytic efficiency (kcat/Km) worked out at 29000 M⁻¹ s⁻¹.

For the origin of these results see article PMC11291249, “Investigating the biosynthesis and roles of the auxin phenylacetic acid during Pseudomonas syringae-Arabidopsis thaliana pathogenesis” (Frontiers in Plant Science, 2024).
